The target in this experiment is T1, SALT TOLERANCE HOMOLOG2 (STH2) (Arabidopsis thaliana, UniProt Q9LQZ7 1-331, limits assumed).
T1 construct: also called G1482
T1 sequence: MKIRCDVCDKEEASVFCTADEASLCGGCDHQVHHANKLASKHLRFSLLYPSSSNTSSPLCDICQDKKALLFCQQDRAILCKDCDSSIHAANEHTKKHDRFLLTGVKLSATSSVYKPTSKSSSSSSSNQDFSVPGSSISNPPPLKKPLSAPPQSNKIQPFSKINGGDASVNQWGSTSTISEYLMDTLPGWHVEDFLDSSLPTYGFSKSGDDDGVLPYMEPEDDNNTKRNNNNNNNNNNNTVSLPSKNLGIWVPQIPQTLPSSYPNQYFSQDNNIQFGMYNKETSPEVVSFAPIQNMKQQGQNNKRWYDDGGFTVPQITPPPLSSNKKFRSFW
As to the kind of experiment: in vitro and protoplast based studies (methods not described).

B1: G1988 (other)
chain: MVSFCELCGAEADLHCAADSAFLCRSCDAKFHASNFLFARHFRRVICPNCKSLTQNFVSGPLLPWPPRTTCCSESSSSSCCSSLDCVSSSELSSTTRDVNRARGRENRVNAKAVAVTVADGIFVNWCGKLGLNRDLTNAVVSYASLALAVETRPRATKRVFLAAAFWFGVKNTTTWQNLKKVEDVTGVSAGMIRAVESKLARAMTQQLRRWRVDSEEGWAENDNV
notes: also called B-box zinc finger transcription factor G1988
Turning to B1, the binding result is “binds”.

(Values after patent US20200181634A1 (MENDEL BIOTECHNOLOGY, published 2020).)
